In this assay the target is T1, His标签的重组人CTLA-4抗原蛋白 (human, UniProt P16410 36-161, limits assumed).
T1 construct: Made in-house (君盟自制); also called 重组人CTLA-4蛋白; 人CTLA-4蛋白; not shown: His tag
T1 sequence (looked up): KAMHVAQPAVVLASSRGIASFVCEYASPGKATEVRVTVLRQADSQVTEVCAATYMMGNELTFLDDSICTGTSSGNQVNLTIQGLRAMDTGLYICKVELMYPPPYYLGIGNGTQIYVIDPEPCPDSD
In words: SPR (Biacore T200): antibody captured on goat anti-human Fc CM5 chip, His-tagged CTLA-4 0.75-24 nM as analyte, kinetic fit.

B1: huJS007-47 (antibody, V domains shown)
VH: QVQLQESGPGLVKPSQTLSLTCTVSAYSITSGYYWNWIRQHPGKGLEWIGYIGYDGSNNYNPSLKSRVTISRDTSKNQFSLKLSSVTAADTAVYYCARDYYSGYFDSWGQGTTLTVSS
VL: DIQMTQSPSSLSASVGDRVTITCRASQNVGTYVAWYQQKPGKVPKPLIYSTSYRYSGVPSRFSGSGSGTDFTLTISSLQPEDVATYFCHQYDTYPLTFGAGTKLELKR
B1 had an equilibrium dissociation constant (Kd) of 0.206 nM, a koff of 0.000169 s⁻¹ and a kon of 818000 M⁻¹ s⁻¹.

As a reminder, the Kd is the equilibrium constant for the complex coming apart. A low value points to higher affinity. A word on the koff: it is the rate constant with which the complex falls apart. A high value points to fast dissociation. Broadly, the kon is the second-order rate constant of association. A high value points to fast association.
